According to US20250092146A1, “ANTI-CCR8 ANTIBODIES, CONJUGATES, AND USES THEREOF” (Abilita Bio, Inc., priority 2023, published 2025):
Changes are numbered by the printed parent chain. Names and notes keep the numbering of the source.

B1: VHH-1.3-3: VHH-1.3 variant I39Y, G40S, R55W, SEQ ID NO: 188; tested as Fc fusion (protein)
VHH: EVQLVESGGGLVQPGGSLRLSCAASGSTSSIRRYSWYRQAPGKGRELVAWFSSGGGTNYADSVKGRFTISGDNSKNTMYLQMNSLRAEDTAVYYCSARRLLGTSRVDYWGQGTQVTVSS
B2: VHH-1.3-11: VHH-1.3 variant G64T, SEQ ID NO: 196; tested as Fc fusion (protein)
VHH: B1 VHH with E1Q, V5Q, Y34I, S35G, W50R, G56T, T57I
B3: VHH-1.3-5: VHH-1.3 variant R55G, SEQ ID NO: 190; tested as Fc fusion (protein)
VHH: B1 VHH with Y34I, S35G, W50G, Q114T
B4: VHH-1.3-10: VHH-1.3 variant T65I, L110V, SEQ ID NO: 195; tested as Fc fusion (protein)
VHH: B1 VHH with E1Q, V5Q, Y34I, S35G, W50R, T57I, L101V
B5: VHH-1.3-16: VHH-1.3 variant S35T, R37V, G64S, R108I, SEQ ID NO: 201; tested as Fc fusion (protein)
VHH: B1 VHH with S30T, R32V, Y34I, S35G, W50R, G56S, R99I, Q114T
B6: VHH-1.3-7: VHH-1.3 variant A25V, R55H, N82K, SEQ ID NO: 192; tested as Fc fusion (protein)
VHH: B1 VHH with A24V, Y34I, S35G, W50H, N73K, Q114T
B7: VHH-1.3-6: VHH-1.3 variant R55H, SEQ ID NO: 191; tested as Fc fusion (protein)
VHH: B1 VHH with Y34I, S35G, W50H, Q114T
B8: VHH-1.3-14: VHH-1.3 variant G64S, L110V, SEQ ID NO: 199; tested as Fc fusion (protein)
VHH: B1 VHH with Y34I, S35G, W50R, G56S, T57I, L101V
B9: VHH-1.3-12: VHH-1.3 variant S28F, G64T, L110Y, SEQ ID NO: 197; tested as Fc fusion (protein)
VHH: B1 VHH with S27F, Y34I, S35G, W50R, G56T, L101Y
B10: VHH-1.3-15: VHH-1.3 variant S58G, SEQ ID NO: 200; tested as Fc fusion (protein)
VHH: B1 VHH with Y34I, S35G, W50R, S53G, Q114T
B11: VHH-1.3-13: VHH-1.3 variant A25V, R38G, S57I, SEQ ID NO: 198; tested as Fc fusion (protein)
VHH: B1 VHH with A24V, R33G, Y34I, S35G, W50R, S52I
B12: VHH-1.3-4: VHH-1.3 variant R38T, R108I, SEQ ID NO: 189; tested as Fc fusion (protein)
VHH: B1 VHH with R33T, Y34I, S35G, W50R, R99I, Q114T

These molecules were tested against T1, HuT-78 cells that naturally express human CCR8 (Homo sapiens, UniProt P51685) (assay: Flow cytometry binding of yeast-display optimized VHH-Fc antibodies to HuT-78 cells). Conditions: Table 13; clones tested as VHH-Fc fusions (human IgG1 Fc), HuT-78 cells.
T1 construct: HuT-78 cells that naturally express human CCR8 were used as target cells; endogenous in cells; host or cells: HuT-78
T1 sequence (P51685 whole entry, the tested form may be a part): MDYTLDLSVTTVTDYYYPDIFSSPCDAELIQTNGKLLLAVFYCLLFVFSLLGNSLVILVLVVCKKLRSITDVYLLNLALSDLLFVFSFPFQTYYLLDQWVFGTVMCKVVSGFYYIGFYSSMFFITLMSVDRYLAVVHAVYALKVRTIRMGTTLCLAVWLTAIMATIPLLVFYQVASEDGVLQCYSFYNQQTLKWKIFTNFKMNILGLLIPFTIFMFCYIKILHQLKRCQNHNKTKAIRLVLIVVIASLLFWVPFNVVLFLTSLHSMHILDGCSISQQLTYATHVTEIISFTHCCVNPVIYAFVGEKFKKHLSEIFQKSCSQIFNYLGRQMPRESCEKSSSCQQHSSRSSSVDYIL
Description: Top VHH sequences were chosen from the FACS sorted populations based on an analysis of improved binding performance relative to the parental sequences and evidence of sequence enrichment by NGS. Candidate VHH were then cloned as VHH-Fc fusions to the short hinge of the IgG1 Fc domain (SEQ ID NO: 34), expressed in HEK293 cells as described earlier and purified for binding evaluation. Bmax values are shown as normalized to VHH-1 or VHH-2 depending on the clone family. […] Mutations are referenced by position according to the IMGT definition.

EC50	Molecule
1.81 nM	B1
0.61 nM	B2
4.42 nM	B3
1.3 nM	B4
3.1 nM	B5
0.56 nM	B6
3.75 nM	B7
0.9 nM	B8
1.24 nM	B9
2.82 nM	B10
0.38 nM	B11
7.68 nM	B12

Same assay, conditions: Table 13; normalized to VHH-1 or VHH-2 depending on clone family

Normalized Bmax (%)	Molecule
104.4%	B1
79.6%	B2
90.1%	B3
125.4%	B4
79.0%	B5
111.8%	B6
97.0%	B7
131.9%	B8
79.6%	B9
107.1%	B10
91.1%	B11
82.4%	B12
